# Publication PMC7438732, “The H^+-Translocating Inorganic Pyrophosphatase From Arabidopsis thaliana Is More Sensitive to Sodium Than Its Na^+-Translocating Counterpart From Methanosarcina mazei” (Frontiers in Plant Science, 2020)
# B1: AVP1 (Arabidopsis thaliana) (protein)
# chain: MVAPALLPELWTEILVPICAVIGIAFSLFQWYVVSRVKLTSDLGASSSGGANNGKNGYGDYLIEEEEGVNDQSVVAKCAEIQTAISEGATSFLFTEYKYVGVFMIFFAAVIFVFLGSVEGFSTDNKPCTYDTTRTCKPALATAAFSTIAFVLGAVTSVLSGFLGMKIATYANARTTLEARKGVGKAFIVAFRSGAVMGFLLAASGLLVLYITINVFKIYYGDDWEGLFEAITGYGLGGSSMALFGRVGGGIYTKAADVGADLVGKIERNIPEDDPRNPAVIADNVGDNVGDIAGMGSDLFGSYAEASCAALVVASISSFGINHDFTAMCYPLLISSMGILVCLITTLFATDFFEIKLVKEIEPALKNQLIISTVIMTVGIAIVSWVGLPTSFTIFNFGTQKVVKNWQLFLCVCVGLWAGLIIGFVTEYYTSNAYSPVQDVADSCRTGAATNVIFGLALGYKSVIIPIFAIAISIFVSFSFAAMYGVAVAALGMLSTIATGLAIDAYGPISDNAGGIAEMAGMSHRIRERTDALDAAGNTTAAIGKGFAIGSAALVSLALFGAFVSRAGIHTVDVLTPKVIIGLLVGAMLPYWFSAMTMKSVGSAALKMVEEVRRQFNTIPGLMEGTAKPDYATCVKISTDASIKEMIPPGCLVMLTPLIVGFFFGVETLSGVLAGSLVSGVQIAISASNTGGAWDNAKKYIEAGVSEHAKSLGPKGSEPHKAAVIGDTIGDPLKDTSGPSLNILIKLMAVESLVFAPFFATHGGILFKYF
# Substrate: O=P(O)(O)OP(=O)(O)O
# Assay: cells, lysate or membranes
# Conditions: 0 mM added NaCl, 100 mM KCl, pH 7.2, 30 °C, Mg2PPi substrate without excess Mg2+, Na+ from Na4PPi present
protein,measurement,value
B1,K0.5,0.14 ± 0.08 mM
